Assay [1] in a line: Indirect ELISA on microplates coated with BSA-PFOA conjugate. The class given is binding. The following applies: for binding affinity to BSA-PFOA: indirect ELISA, various antibody dilutions; for response to BSA-PFOA at 1:50,000 dilution: antibody dilution 1:50,000. How it is done:
Polyclonal rabbit antibodies to PFOA were prepared according to methods well known in the art. E. Harlow & D. Lane, Antibodies: A Laboratory Manual (1988) (published by Cold Spring Harbor Press, Cold Spring Harbor, N.Y.). These polyclonal antibodies were tested for their binding affinity to PFOA (FIG. 1A). PFOA was conjugated to bovine serum albumin by methods well known in the art. G.T. Hermanson, Bioconjugate Techniques (Academic Press, 785 pp., 1995). S.S. Wong, Chemistry of Protein Conjugation and Cross-Linking (CRC Press, 340 pp., 1991); G.T. Hermanson et al., Immobilized Affinity Ligand Techniques (Academic Press, 450 pp., 1992). Microplates were treated with BSA-PFOA conjugate and incubated. After washing with buffer, blocking solution was added followed by varying dilutions of monoclonal antibodies (mABs). The plate was then further incubated. After washing again, anti-rabbit secondary antibodies were added. A color reaction was developed using tetramethyl benzidine (TMB), and the reaction was read at 450 nm.
The results were consistent over various antibody dilutions.
(In an ELISA, binding on a coated surface is turned into a signal by an enzyme label.)

The nature of assay [2]: Competitive ELISA, conjugated PFOA versus free PFOA. The format is binding. The following applies: for lowest PFOA concentration detected: synthetic matrix under laboratory conditions. The procedure: (§1) Microplates were treated with anti-PFOA mABs. After incubation, the wells were exposed to a biotin-PFOA conjugate and free PFOA compounds, which compete for a finite number of antibody recognition sites. Next, streptavidin-HRP conjugate was added, which binds to the biotin-PFOA molecules. The resultant color reaction was measured spectrophotometrically. P. Langer et al., 78 Proc. Nat'l Acad. Sci USA 6633-37 (1981); A. Forster et al., 13 Nucleic Acids Res. 745-61 (1985); L. Riley et al., 5 DNA 333-37 (1986); M.D. Savage et al., Avidin-Biotin Chemistry: A Handbook (Pierce Chemical Co., 467 pp., 1992). The amount of signal was inversely proportional to the concentration of free-PFOA provided. This approach determined the dynamic range of antibody detection.
Antibodies mAB3 and mAB5 were then tested for dose response to PFOA using the competitive ELISA described in FIG. 1B. The assay was performed using two carrier molecules: (1) biotin (small carrier), and (2) horse radish peroxidase (HRP; large carrier). […] Also observed was the dynamic response of the assay to 0.5 ppb (500 ppt) of PFOA.
A plasmid containing the sequence for antibody mAB3 was expressed in Expi293 cells, and the resulting antibody was purified using Protein A and gel filtration chromatography, as is well known in the art. This antibody was tested for its binding affinity to PFOA using the competitive ELISA described in FIG. 1B.

Assay [3] can be described thus: Competitive ELISA, specificity of binding to PFOA compared with octanoic acid. Particulars: FIG. 5. The procedure:
as §1
Antibodies mAB3 and mAB5 were also tested for specificity of binding to PFOA as compared to known analogs, such as OA.

Assay [4] in a line: Surface plasmon resonance, antibody on CM5 sensor chip. The class given is binding. Particulars: for SPR signal with PFOA: PFOA between 41 ppm and 41 ppb; for type of SPR binding interaction: instant association and dissociation curve. From the text:
Surface plasmon resonance occurs when a directed light at a specific angle of incidence excites electrons in a thin metal sheet. As a result, the electrons travel parallel to the sheet. This is related to the refractive index of the material. Even a small change alters the response, allowing SPR to be used as a techniques for detection of physical interactions between analytes. […] In this example, the antibody is bound to a sensor chip that carries a matrix of carboxymethylated dextran covalently attached to a gold surface. In this example, the chip is a CM5 sensor chip.
mAb3 (FIG. 11) and mAB5 (FIG. 12) were tested for binding with different concentrations of PFOA ([…], 10 μM, 1 μM, 0.1 μM). The concentration of PFOA tested was between ˜41 ppm and 41 ppb.
(In general: Surface plasmon resonance follows binding to a sensor surface in real time, without labels.)

Assay [5] in a line: Waveguide interferometry, antibody coupled to waveguide surface. The format is binding. Particulars: groundwater from a contaminated site, approximately 7.5 ppb PFOA, compared with 2 ppb PFOA signal. How it is done:
The device combines two very sensitive methods, waveguiding and interferometry, to form waveguide interferometry technology used in rapid low-level detection sensing applications. In optical interferometry, small changes in refractive index are measured along the pathway of an optical beam of light during its propagation. As the light propagates, it generates an optical electromagnetic field, a small fraction of which-known as the evanescent field-enables detection by interacting with the changes in refractive index occurring on the waveguide cover layer. […] As PFAS is introduced to the functionalized waveguide, PFAS binding to the antibody displaces the sample solution near the waveguide surface, changing the light beam's velocity. Simultaneously, an adjacent reference beam is left unperturbed and is optically combined with the sensing beam to measure the velocity change. This creates an interference pattern that shifts as the refractive index changes, producing a corresponding change in the relative phase measurement.
Binding of PFAS binding proteins to PFAS was tested using interferometry. Specifically, binding of anti-PFOA antibody mAB5 to PFOA was measured by comparing the interferometry signal for a 1% methanol PBS buffer containing either 0 ppb PFOA (negative control; FIG. 14A) or 2 ppb PFOA (test sample; FIG. 14B). […]

The nature of assay [6]: Competitive ELISA, binding affinity to other PFAS compounds. How it is done:
as §1
The mAB3 produced in vitro was also tested for its binding affinity to other PFAS compounds, including PFOS, PFHxS, and PFBA.

B1: mAB4: rabbit anti-PFOA monoclonal antibody, heavy chain variable SEQ ID NO: 18, light chain variable SEQ ID NO: 23 (antibody, listed as Oryctolagus cuniculus, V domains shown)
VH: QEQLEESRGGLIKPTDTLTLTCTASGFSLSNYGINWVRQAPGEGLEWIGAIRGSGFIYYATWAKSRSTITRNTNLNTVTLKMTSLTAADTATYFCARRDGLYSAMDPWGPGTLVTVSS
VL: DPVLTQTPSSTSAAVGGTVTISCQSSDSVYKNNYLAWFQQKPGQPPKVLIYHASKLASGVPSRFSGSGSGTQFTLTISGVQCDDAATYYCLGEYSDTHVFGGGTEVVVKG
As to B1, the “binding affinity to BSA-PFOA” value in assay [1] is “no significant binding affinity”.

B2: mAB5: rabbit anti-PFOA monoclonal antibody, heavy chain variable SEQ ID NO: 19, light chain variable SEQ ID NO: 24 (antibody, listed as Oryctolagus cuniculus, V domains shown)
VH: QSVKESEGGLFKPTDTLTLTCTASGFSLSSYGVIWVRQAPGKGLQWIGFINIYGTPSYASWAMGRSTITGNTNLNTVILKMTSLTVADTATYFCASSVGSDGYLYSSDIWGPGTLVTVSS
VL: DPVLTQTPSSVSAAVGGTVTINCQASQSVYNNKCLAWYQQKPGQPPKLLIYGASTLASGVPSRFSGSGSGTQFTLTISDLECDDAATYYCAGGYYSEIHFGGGTEVVVKG
On to B2, for which, in assay [1], the “response to BSA-PFOA at 1:50,000 dilution” value is “negligible” and the “binding affinity to BSA-PFOA” value is listed as “best binding affinity”. The “lowest PFOA concentration detected” value in assay [2] is on record as 0.5 ppb. Further, the “response to PFOA versus OA” value in assay [3] came out at 78 fold. Moreover, in assay [4], the “SPR signal with PFOA” value was “concentration dependent signal” and the “type of SPR binding interaction” value is on record as “steady-state interaction”. Also, the “interferometry signal in groundwater” value in assay [5] is “consistent and approximately proportional to the concentration of PFOA”.

B3: mAB2: rabbit anti-PFOA monoclonal antibody, heavy chain variable SEQ ID NO: 16, light chain variable SEQ ID NO: 21 (antibody, listed as Oryctolagus cuniculus, V domains shown)
VH: QSVKESEGGLFKPTDNLTLTCAVSRFSLSSYGVSWVRQAPGNGLEWIGYIYTDGSAYYASWAKSRSTITRNTNLNTVTLKMTSLTAADTATYFCARHSSGWGIDYFNVWGPGTLVTVSS
VL: AAVLTQTPSSVSAAVGGTVTINCQASQSVYNNNYLSWYQQKPGQPPKLLIYLASTLASGVPSRFSGSGSGTEFTLTISDLECDDGATYYCAGGVTSSDRPFGGGTEVVVKG
For B3, in assay [1], the “binding affinity to BSA-PFOA” value is reported as “no significant binding affinity”.

B4: mAB3: rabbit anti-PFOA monoclonal antibody, heavy chain variable SEQ ID NO: 17, light chain variable SEQ ID NO: 22 (antibody, listed as Oryctolagus cuniculus, V domains shown)
VH: QSLEESEGGLFKPGGTLTLTCTVSGFSLNIYSISWVRQAPGKELEWIGTMSNVDATYYANWAKSRSTITRNINESTVTLKMPSLTVADTATYFCARYIYGAGYDIWGPGTLVTVSS
VL: ADIVMTQTPASVEAAVGGTVTIKCQASQSISSWLSWYQQKPGQPPKLLIYKASTLASGVPSRFKGSGSGTEYTLTISGVQCADAATYYCQSVYYSSSTNYGNTFGGGTEVVVKG
With B4, the “response to BSA-PFOA at 1:25,000 dilution compared with 1:5,000” value in assay [1] (antibody dilution 1:25,000 vs 1:5,000) is “approximately four-fold lower”. In addition, in assay [1], the “response to BSA-PFOA at 1:50,000 dilution” value is “very depressed” and the “binding affinity to BSA-PFOA” value is listed as “best binding affinity”. For the same molecule, in assay [2] (antibody expressed in Expi293 cells, purified using Protein A and gel filtration chromatography), the “binding affinity to PFOA” value is “about 1 ppt”. Besides, in assay [2] (antibody isolated from rabbit serum), the “binding affinity to PFOA” value is “about 500 ppt”. Further, in assay [2], the “lowest PFOA concentration detected” value is on record as 0.5 ppb. The “affinity to OA as compared to PFOA” value in assay [3] is “six-fold lower”. In addition, the “binding to PFOS and other PFAS compounds in addition to PFOA” value in assay [6] (FIG. 9) is “can bind”. The “binding affinity to PFOS as compared to PFOA” value in assay [6] (purified antibody produced in vitro) is reported as 99%. In assay [4], the “SPR signal with PFOA” value is recorded as “concentration dependent signal” and the “type of SPR binding interaction” value is reported as “steady-state interaction”.

B5: mAB1: rabbit anti-PFOA monoclonal antibody, heavy chain variable SEQ ID NO: 15, light chain variable SEQ ID NO: 20 (antibody, listed as Oryctolagus cuniculus, V domains shown)
VH: QSVKESEGGLFKPTDTLTLTCTASGFSLSSYGVSWVRQAPGNGLEWIGSIEDGGSAYYASWAKSRSTITSNTNLNTVTLQMTSLTAADTATYFCGSLSIGSAYPGIWGPGTLVTVSS
VL: AIVMTQTPSSKSVPVGDTVTIKCQASQSIGTRLAWFQQKPGQPPKRLIYSASTLASGVPSRFSGSGSGTQFTLTISDVVCDDAAAYYCGGYKSSSSDGIAFGGGTEVVVKG
Regarding B5, the “binding affinity to BSA-PFOA” value in assay [1] was “no significant binding affinity”.

Values taken from patent US20250369960A1, “PER- AND POLYFLUORINATED ALKYL COMPOUND (PFAS) BINDING PROTEINS AND USES THEREOF” (Allonnia, LLC, priority 2022, published 2025).
